Among the data in publication PMC10778692 are DTT-induced aggregation of insulin with F113Y (5:1 substrate to sHsp), reduction in the peak level of light scattering and heat-induced (55 °C) aggregation of MDH with R116C, reduction of light scatter values, retold here.

Some results are limits rather than exact numbers.

Assay [1] has as its target insulin.
For assay [2], the target named is T1, L-Malate dehydrogenase (UniProt P00346).
T1 sequence: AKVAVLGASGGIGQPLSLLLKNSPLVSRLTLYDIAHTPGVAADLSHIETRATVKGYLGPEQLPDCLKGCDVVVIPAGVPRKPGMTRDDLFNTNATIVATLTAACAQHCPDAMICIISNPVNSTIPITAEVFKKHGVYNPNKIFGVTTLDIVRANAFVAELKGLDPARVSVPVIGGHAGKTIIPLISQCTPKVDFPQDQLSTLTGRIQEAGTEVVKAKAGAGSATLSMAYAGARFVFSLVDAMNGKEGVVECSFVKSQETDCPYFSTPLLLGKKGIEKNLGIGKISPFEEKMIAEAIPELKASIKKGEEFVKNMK

B1: HspB5 F113Y (natural protein)
chain: MDIAIHHPWIRRPFFPFHSPSRLFDQFFGEHLLESDLFPTSTSLSPFYLRPPSFLRAPSWFDTGLSEMRLEKDRFSVNLDVKHFSPEELKVKVLGDVIEVHGKHEERQDEHGYISREFHRKYRIPADVDPLTITSSLSSDGVLTVNGPRKQVSGPERTIPITREEKPAVTAAPKK
On to B1, for which the DTT-induced aggregation of insulin with F113Y (5:1 substrate to sHsp), reduction in the peak level of light scattering at 340 nm in assay [1] is > 50%.

B2: HspB5 R116C (natural protein)
chain: MDIAIHHPWIRRPFFPFHSPSRLFDQFFGEHLLESDLFPTSTSLSPFYLRPPSFLRAPSWFDTGLSEMRLEKDRFSVNLDVKHFSPEELKVKVLGDVIEVHGKHEERQDEHGFISCEFHRKYRIPADVDPLTITSSLSSDGVLTVNGPRKQVSGPERTIPITREEKPAVTAAPKK
B2: the heat-induced (55 °C) aggregation of MDH with R116C, reduction of light scatter at 340 nm against substrate alone in assay [2] is 16%.
